Source: publication PMC4267639, “The Mtr4 ratchet helix and arch domain both function to promote RNA unwinding”

Key:
Experiment in all cases: fluorescence anisotropy
Conditions in all cases: FA: 40 mM MOPS pH 6.5, 100 mM NaCl, 0.5 mM MgCl2, 5% glycerol, 0.01% NP-40 substitute, 2 mM DTT, 60 nM RNA, 30 C; EMSA conditions not in material
[1] = target: T1, Mtr4 R1030A-archless R1030A (Saccharomyces cerevisiae) (UniProt P47047)
T1 sequence: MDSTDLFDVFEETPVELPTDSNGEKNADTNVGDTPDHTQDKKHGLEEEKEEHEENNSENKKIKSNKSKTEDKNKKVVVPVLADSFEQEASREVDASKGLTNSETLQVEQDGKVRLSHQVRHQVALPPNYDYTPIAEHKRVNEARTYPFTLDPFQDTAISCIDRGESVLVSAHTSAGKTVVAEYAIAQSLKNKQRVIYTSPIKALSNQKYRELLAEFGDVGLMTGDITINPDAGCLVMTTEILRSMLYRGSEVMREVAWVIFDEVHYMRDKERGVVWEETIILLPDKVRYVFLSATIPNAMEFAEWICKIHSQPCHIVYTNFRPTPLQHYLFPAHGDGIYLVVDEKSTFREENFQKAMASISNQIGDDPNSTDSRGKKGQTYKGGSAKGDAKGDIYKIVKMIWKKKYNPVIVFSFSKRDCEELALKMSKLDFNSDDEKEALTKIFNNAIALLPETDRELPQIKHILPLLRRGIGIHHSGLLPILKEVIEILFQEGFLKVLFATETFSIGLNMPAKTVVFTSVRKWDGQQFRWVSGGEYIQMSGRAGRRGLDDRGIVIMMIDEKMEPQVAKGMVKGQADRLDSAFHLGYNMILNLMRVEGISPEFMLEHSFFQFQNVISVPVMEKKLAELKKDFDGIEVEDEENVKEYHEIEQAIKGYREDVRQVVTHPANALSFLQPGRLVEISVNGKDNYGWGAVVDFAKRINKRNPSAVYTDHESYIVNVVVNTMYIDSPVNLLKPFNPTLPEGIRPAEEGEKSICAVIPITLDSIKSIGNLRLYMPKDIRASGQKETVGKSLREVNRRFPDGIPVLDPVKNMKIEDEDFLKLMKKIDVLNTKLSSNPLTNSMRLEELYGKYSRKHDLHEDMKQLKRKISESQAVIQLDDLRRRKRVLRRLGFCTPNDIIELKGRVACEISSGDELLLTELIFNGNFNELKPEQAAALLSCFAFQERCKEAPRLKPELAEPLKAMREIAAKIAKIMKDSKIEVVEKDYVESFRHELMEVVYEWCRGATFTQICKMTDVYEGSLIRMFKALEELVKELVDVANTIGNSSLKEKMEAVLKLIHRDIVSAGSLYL

[2] = target: T2, Mtr4 E1033A-archless E1033A (Saccharomyces cerevisiae) (UniProt P47047)
T2 sequence: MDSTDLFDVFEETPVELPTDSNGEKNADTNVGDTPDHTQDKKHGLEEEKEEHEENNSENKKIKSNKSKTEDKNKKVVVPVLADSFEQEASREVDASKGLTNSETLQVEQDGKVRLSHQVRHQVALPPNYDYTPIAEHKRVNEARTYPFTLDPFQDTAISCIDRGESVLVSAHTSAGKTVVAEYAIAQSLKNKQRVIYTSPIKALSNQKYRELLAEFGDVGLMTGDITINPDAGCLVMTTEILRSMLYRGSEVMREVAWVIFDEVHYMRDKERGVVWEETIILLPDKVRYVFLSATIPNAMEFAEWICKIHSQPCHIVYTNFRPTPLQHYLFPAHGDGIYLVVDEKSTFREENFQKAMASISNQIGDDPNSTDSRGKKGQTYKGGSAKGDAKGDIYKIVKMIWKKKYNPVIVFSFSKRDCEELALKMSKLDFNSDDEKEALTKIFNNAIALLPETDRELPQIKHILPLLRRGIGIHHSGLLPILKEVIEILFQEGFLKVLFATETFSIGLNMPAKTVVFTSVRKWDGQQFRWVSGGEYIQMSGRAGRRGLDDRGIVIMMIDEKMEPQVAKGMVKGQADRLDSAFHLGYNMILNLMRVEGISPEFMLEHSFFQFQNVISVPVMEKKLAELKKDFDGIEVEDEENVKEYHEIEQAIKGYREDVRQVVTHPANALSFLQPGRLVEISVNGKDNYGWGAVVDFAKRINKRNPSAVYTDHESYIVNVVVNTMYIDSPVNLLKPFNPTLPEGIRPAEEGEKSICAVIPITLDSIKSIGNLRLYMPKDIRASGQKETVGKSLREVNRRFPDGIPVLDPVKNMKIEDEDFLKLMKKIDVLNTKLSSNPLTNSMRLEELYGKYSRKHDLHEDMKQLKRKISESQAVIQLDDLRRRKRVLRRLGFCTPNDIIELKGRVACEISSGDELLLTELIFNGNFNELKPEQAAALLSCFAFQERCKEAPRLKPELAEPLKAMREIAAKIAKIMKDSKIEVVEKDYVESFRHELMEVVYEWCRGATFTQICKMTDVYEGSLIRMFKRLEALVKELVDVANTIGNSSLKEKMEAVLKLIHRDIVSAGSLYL

[3] = target: T3, Mtr4 archless (Saccharomyces cerevisiae) (UniProt P47047)
T3 sequence: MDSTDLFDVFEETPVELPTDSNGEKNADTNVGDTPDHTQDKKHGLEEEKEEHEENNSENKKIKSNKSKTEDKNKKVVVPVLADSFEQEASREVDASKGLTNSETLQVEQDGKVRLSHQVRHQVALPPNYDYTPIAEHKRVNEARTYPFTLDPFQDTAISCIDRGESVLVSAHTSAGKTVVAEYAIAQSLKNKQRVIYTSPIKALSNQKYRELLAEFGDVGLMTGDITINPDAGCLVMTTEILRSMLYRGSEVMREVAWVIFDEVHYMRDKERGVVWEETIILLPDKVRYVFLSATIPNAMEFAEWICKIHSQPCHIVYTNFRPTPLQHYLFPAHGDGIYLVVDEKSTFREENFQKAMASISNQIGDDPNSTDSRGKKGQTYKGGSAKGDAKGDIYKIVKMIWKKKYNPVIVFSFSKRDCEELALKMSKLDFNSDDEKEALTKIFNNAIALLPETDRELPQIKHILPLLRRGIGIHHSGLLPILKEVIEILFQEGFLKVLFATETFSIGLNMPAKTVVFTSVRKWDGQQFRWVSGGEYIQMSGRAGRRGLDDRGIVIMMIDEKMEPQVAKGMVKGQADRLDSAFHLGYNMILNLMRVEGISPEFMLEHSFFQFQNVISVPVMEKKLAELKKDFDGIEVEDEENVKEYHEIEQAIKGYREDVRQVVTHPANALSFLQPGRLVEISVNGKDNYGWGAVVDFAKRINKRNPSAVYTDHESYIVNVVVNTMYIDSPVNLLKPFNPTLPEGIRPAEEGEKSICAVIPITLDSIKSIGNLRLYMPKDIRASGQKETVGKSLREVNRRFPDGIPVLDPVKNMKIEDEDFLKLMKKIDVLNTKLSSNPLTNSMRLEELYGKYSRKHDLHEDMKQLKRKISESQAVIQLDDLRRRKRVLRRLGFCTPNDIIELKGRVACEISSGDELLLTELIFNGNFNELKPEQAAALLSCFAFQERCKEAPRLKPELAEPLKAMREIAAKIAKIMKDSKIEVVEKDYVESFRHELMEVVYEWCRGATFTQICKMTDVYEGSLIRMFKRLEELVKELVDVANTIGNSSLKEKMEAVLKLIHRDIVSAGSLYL

GCGUCUUUACGGUGCUUAAAAA / AGCACCGUAAAGACGC [poly(A) substrate R22A/R16, fluorescein]
Kd [1]: > 10 µM | Kd [2]: 4.8 µM | Kd [3]: 4.5 µM
